In US20250073269A1 (CAS LAMVAC GUANGZHOU BIOMEDICAL TECHNOLOGY, published 2025):
Several values for one entry are separate records, joined by “and”; a condition that tells them apart may be missing. Equal entries are not always repeated.

Tests used:
[1] = target: T1, catenated VAR2CSA recombinant protein AXVB (Plasmodium, isopeptide bond between SpyTag and SpyCatcher (intra- or intermolecular coupling, cyclization and catenation)); assay: ELISA, AXVB coated, 5H4 mAb titrated; single experiment of three
T1 construct: also called AXVB protein; AXVB navigator protein
Description: (§1) (1) Antigen coating: The AXVB and rVAR2 proteins were diluted to a final concentration of 20 nM with the Na₂CO₃—NaHCO₃ carbonate coating buffer (with a pH of 9.6) which was filtered and sterilized by the 0.22 μm filter membrane, respectively, 100 μL of each protein sample was added to a 96-well Elisa plate (JET BIOFIL, Guangzhou, China, Cat. #FEP101896), with three replicates per protein sample, and the Elisa plate was covered with a sealing film and incubated at 4° C. overnight. […] (2) Antigen blocking: The coating solution in the Elisa plate was removed, the Elisa plate was washed with a PBST solution (1×PBS+0.05% v/v polyoxyethylene sorbitan fatty acid ester, with a pH of 7.2-7.4) three times, the liquid was patted dry, 200 μL of PBST solution containing 5% BSA was added, and the Elisa plate was then incubated at room temperature for 2 hours. […] (3) Primary antibody incubation: The antigen blocking solution was removed, the Elisa plate was washed with the PBST solution three times, and 100 μL of 5H4 mAb at different concentrations which was diluted with an antibody dilution solution (1×PBS containing 0.1% BSA) in different ratios was added to each well.

[2] = target: T2, wild-type VAR2CSA recombinant protein (rVAR2) (Plasmodium); assay: ELISA, rVAR2 coated, 5H4 mAb titrated; single experiment of three
T2 construct: Monomer of about 73.1 kDa including the tag, with no intra- or intermolecular coupling; Prepared as in CN110325551B; also called rVAR2 protein; monomeric VAR2CSA recombinant protein
T2 chain: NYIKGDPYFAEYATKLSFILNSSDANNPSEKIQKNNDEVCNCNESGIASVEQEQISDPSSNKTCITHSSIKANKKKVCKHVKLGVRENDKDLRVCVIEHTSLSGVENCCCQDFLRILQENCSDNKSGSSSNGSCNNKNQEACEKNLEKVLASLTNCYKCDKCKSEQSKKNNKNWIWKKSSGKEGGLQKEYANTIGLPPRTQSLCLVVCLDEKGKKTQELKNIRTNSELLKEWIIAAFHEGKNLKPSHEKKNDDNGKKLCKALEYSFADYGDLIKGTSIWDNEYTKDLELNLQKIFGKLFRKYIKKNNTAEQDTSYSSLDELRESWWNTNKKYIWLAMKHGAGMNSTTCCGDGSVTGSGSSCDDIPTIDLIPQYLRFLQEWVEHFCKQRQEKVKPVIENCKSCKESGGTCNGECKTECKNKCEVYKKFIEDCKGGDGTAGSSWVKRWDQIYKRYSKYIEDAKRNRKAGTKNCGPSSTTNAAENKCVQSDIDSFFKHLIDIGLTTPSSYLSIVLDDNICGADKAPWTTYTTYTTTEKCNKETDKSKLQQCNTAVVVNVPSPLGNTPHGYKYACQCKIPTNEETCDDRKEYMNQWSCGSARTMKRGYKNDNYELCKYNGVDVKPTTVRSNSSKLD
Description: as §1

[3] = target: T1, catenated VAR2CSA recombinant protein …; assay: ELISA, AXVB coated, 5H4 mAb titrated; single experiment of three (FIG. 10)
Description: as §1

[4] = target: T2, wild-type VAR2CSA recombinant protein …; assay: ELISA, rVAR2 coated, 5H4 mAb titrated; single experiment of three (FIG. 11)
Description: as §1

[5] = target: T1, catenated VAR2CSA recombinant protein …; assay: ELISA, AXVB coated at 20 nM, 5H4 mAb titrated, non-linear regression; mean of three experiments
[6] = target: T2, wild-type VAR2CSA recombinant protein …; assay: ELISA, rVAR2 coated at 20 nM, 5H4 mAb titrated, non-linear regression; mean of three experiments

B1: monoclonal antibody 5H4 (5H4 mAb) (antibody, V domains shown)
VH: EVKLVESGGGLVKPGGSLKLSCAASGFTFSNYAMSWVRQSPERRLEWVAEISITGRYTYYPDTVTGRFTISRDNAKNTLYLEMSSLRSEDTAMYYCTREGYDYAPSWFAYWGQGTLVTVSA
VL: DVVMTQTPLSLPVSLGDQASISCRSGQTLVHRNGITYLEWYLQKPGQSPKLLIYKVSNRFSGVPDRFSGSGSGTDFTLKISRVEAEDLGIYYCFQGSHVPRTFGGGTKLEIK
notes: Mouse monoclonal antibody, detected with anti-mouse IgG; also called mouse anti-rVAR2 protein monoclonal antibody 5H4 mAb
Q: For B1, which Kd [1] is on record?
A: Its Kd is 0.073 µM and 0.1 µM.

Q: And the Kd [2]?
A: The Kd was 0.123 µM and 0.174 µM.

Q: And the Kd [3]?
A: Its Kd is 0.0778 µM.

Q: And the Kd [4]?
A: Its Kd is 0.136 µM.

Q: What about the Kd [5] of the same binder?
A: The Kd was 0.0837 µM.

Q: What about the Kd [6] of the same binder?
A: Its Kd is 0.144 µM.
